Data on 2 proteins can be found in patent publication US20070077617.

Sequence of fusion protein PRA (chain, as listed by the source): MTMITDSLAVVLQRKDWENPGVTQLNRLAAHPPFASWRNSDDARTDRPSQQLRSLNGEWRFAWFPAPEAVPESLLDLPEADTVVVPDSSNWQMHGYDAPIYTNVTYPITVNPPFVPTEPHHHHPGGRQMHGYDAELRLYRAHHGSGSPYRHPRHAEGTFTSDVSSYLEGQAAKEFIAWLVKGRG
Sequence of fusion protein PRE (chain, as listed by the source): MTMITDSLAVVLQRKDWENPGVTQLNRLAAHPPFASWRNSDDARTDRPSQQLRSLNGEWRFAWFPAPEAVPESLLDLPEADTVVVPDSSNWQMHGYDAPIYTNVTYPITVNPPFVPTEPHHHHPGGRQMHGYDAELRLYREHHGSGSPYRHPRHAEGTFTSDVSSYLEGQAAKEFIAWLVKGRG
Sequence of fusion protein PRW (chain, as listed by the source): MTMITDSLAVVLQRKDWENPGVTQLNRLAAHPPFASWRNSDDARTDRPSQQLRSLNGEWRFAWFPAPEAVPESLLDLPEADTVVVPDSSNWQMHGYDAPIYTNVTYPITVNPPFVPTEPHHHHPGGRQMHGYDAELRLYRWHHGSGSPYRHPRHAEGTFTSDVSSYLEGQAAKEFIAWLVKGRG
Sequence of fusion protein PRF (chain, as listed by the source): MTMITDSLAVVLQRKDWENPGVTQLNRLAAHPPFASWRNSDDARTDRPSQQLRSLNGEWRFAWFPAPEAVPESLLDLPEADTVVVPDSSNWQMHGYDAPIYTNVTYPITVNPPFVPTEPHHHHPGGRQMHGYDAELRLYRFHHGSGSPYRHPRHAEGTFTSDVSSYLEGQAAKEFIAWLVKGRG
Sequence of fusion protein PRM (chain, as listed by the source): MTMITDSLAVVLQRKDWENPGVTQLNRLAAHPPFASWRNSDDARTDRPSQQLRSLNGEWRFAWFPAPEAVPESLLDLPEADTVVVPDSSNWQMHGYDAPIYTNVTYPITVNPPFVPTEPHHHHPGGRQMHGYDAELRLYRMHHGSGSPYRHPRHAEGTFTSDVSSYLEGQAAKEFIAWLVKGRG
Sequence of fusion protein PRQ (chain, as listed by the source): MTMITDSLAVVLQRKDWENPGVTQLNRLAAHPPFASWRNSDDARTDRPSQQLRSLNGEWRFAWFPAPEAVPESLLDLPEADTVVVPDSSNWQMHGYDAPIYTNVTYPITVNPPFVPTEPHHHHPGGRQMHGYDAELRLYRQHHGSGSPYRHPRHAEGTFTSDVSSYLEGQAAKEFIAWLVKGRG
Sequence of fusion protein PRS (chain, as listed by the source): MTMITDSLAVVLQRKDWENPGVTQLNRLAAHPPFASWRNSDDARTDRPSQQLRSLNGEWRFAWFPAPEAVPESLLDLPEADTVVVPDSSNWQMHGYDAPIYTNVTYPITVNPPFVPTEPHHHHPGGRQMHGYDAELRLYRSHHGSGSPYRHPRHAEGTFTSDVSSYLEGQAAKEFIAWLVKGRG
Sequence of fusion protein PRC (chain, as listed by the source): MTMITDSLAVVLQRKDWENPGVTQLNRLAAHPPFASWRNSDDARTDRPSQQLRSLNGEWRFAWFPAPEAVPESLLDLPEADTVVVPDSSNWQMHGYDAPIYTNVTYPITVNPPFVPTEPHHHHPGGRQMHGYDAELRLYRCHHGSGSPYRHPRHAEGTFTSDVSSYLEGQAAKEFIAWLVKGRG
Sequence of fusion protein PRD (chain, as listed by the source): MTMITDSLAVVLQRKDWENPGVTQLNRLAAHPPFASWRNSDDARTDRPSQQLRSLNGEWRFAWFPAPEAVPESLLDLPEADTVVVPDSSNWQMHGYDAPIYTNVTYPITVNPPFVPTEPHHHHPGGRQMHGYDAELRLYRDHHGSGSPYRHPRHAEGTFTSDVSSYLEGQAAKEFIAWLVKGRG
Sequence of fusion protein PRT (chain, as listed by the source): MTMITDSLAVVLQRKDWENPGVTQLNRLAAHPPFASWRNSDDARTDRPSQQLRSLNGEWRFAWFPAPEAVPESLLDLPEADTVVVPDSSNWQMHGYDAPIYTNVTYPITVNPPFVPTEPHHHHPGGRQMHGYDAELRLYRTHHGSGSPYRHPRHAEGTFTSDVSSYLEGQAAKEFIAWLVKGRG
Sequence of fusion protein PRN (chain, as listed by the source): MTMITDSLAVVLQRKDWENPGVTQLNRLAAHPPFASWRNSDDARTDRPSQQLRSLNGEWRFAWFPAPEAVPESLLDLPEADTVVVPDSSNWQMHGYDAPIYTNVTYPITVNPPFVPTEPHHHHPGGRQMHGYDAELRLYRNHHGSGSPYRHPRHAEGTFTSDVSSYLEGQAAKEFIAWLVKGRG
Sequence of fusion protein PRL (chain, as listed by the source): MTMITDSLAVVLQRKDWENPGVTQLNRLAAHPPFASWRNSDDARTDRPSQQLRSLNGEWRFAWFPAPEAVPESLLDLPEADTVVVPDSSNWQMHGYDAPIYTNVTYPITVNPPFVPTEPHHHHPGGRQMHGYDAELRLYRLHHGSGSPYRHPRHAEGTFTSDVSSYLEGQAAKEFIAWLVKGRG
Sequence of fusion protein PRY (chain, as listed by the source): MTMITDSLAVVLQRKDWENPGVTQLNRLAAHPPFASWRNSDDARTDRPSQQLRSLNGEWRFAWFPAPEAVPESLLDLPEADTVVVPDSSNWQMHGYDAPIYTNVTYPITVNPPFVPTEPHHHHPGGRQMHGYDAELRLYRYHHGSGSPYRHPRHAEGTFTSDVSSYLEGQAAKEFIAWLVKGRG
Sequence of fusion protein PRI (chain, as listed by the source): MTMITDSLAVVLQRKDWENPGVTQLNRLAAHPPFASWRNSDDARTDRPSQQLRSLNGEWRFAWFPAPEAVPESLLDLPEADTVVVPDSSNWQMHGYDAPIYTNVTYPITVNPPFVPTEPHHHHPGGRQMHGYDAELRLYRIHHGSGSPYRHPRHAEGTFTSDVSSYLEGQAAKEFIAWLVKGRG
Sequence of fusion protein PRH (chain, as listed by the source): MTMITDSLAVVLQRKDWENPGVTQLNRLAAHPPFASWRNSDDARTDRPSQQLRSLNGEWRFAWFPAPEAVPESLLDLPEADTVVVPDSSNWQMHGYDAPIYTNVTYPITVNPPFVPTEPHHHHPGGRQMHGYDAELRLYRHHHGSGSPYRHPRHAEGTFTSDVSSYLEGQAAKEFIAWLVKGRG
Sequence of fusion protein PRR (chain, as listed by the source): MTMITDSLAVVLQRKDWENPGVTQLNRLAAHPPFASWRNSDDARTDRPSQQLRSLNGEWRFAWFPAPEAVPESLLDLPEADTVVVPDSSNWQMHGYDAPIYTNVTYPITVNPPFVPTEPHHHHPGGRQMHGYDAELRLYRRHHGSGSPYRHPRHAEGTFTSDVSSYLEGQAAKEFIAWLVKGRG
Sequence of fusion protein PRK (chain, as listed by the source): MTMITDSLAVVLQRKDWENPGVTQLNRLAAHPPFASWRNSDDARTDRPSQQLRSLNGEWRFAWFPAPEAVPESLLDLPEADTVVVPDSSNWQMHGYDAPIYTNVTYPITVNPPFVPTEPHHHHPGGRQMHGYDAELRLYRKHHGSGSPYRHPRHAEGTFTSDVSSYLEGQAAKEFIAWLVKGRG
Sequence of fusion protein PRG (chain, as listed by the source): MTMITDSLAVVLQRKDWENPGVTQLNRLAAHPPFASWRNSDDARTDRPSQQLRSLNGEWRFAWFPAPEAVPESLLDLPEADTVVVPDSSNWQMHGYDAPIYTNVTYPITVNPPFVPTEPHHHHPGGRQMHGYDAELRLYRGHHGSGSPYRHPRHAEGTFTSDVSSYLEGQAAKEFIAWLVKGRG

B1: OmpT protease variant OmpT D97F (protein)
chain: STETLSFTPDNINADISLGTLSGKTKERVYLAEEGGRKVSQLDWKFNNAAIIKGAINWDLMPQISIGAAGWTTLGSRGGNMVDQDWMDSSNPGTWTFESRHPDTQLNYANEFDLNIKGWLLNEPNYRLGLMAGYQESRYSFTARGGSYIYSSEEGFRDDIGSFPNGERAIGYKQRFKMPYIGLTGSYRYEDFELGGTFKYSGWVESSDNDEHYDPGKRITYRSKVKDQNYYSVAVNAGYYVTPNAKVYVEGAWNRVTNKKGNTSLYDHNNNTSDYSKNGAGIENYNFITTAGLKYTF
For the protein B1, the relative cleavage efficiency entry with fusion protein PRP was “less than 3%”; with fusion protein PRF it was below 3%; with fusion protein PRI, below 3%; with fusion protein PRA, 3.1%; with fusion protein PRK, below 3%; in the data set with fusion protein PRL, “less than 3%”. The relative cleavage efficiency result was “less than 3%” with fusion protein PRE; below 3% with fusion protein PRC; “less than 3%” with fusion protein PRD; below 3% with fusion protein PRY; below 3% with fusion protein PRR; below 3% in the data set with fusion protein PRT. Also, the relative cleavage efficiency result with fusion protein PRW was “less than 3%”; in the data set with fusion protein PRM, below 3%; with fusion protein PRQ, “less than 3%”; with fusion protein PRH, “less than 3%”; with fusion protein PRG, “less than 3%”; with fusion protein PRS, below 3%. In the data set with fusion protein PRN, this protein gave a relative cleavage efficiency below 3%.

B2: OmpT protease variant OmpT D97S (protein)
chain: STETLSFTPDNINADISLGTLSGKTKERVYLAEEGGRKVSQLDWKFNNAAIIKGAINWDLMPQISIGAAGWTTLGSRGGNMVDQDWMDSSNPGTWTSESRHPDTQLNYANEFDLNIKGWLLNEPNYRLGLMAGYQESRYSFTARGGSYIYSSEEGFRDDIGSFPNGERAIGYKQRFKMPYIGLTGSYRYEDFELGGTFKYSGWVESSDNDEHYDPGKRITYRSKVKDQNYYSVAVNAGYYVTPNAKVYVEGAWNRVTNKKGNTSLYDHNNNTSDYSKNGAGIENYNFITTAGLKYTF
Consider B2, for which the relative cleavage efficiency entry in the data set with fusion protein PRP was “less than 3%”; in the data set with fusion protein PRF, below 3%; with fusion protein PRI, below 3%; with fusion protein PRA it was 4%; with fusion protein PRK, below 3%; with fusion protein PRL, “less than 3%”. Moreover, the relative cleavage efficiency result with fusion protein PRE was “less than 3%”; with fusion protein PRC, 3.1%; with fusion protein PRD, “less than 3%”; with fusion protein PRY it was below 3%; with fusion protein PRR, below 3%; in the data set with fusion protein PRT, below 3%. The relative cleavage efficiency result was “less than 3%” in the data set with fusion protein PRW; below 3% in the data set with fusion protein PRM; “less than 3%” in the data set with fusion protein PRQ; “less than 3%” in the data set with fusion protein PRH; “less than 3%” with fusion protein PRG; below 3% with fusion protein PRS. Besides, in the data set with fusion protein PRN, the relative cleavage efficiency was below 3%.
